Article PMC8888459 (2022)

Key:
Yah1-GST fusion protein [1] = target: T1, Yah1-GST fusion protein (S. cerevisiae, UniProt Q12184 17-172); test: BLI; anaerobic, reduced Yah1 (Fig. 6C); kd2 of 2:1 fit, second site
T1 chain: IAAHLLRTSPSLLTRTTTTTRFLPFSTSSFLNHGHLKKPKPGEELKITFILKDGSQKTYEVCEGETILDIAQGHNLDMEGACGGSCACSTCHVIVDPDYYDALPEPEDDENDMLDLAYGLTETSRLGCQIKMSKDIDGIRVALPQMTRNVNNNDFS

Yah1-GST fusion protein [2] = target: T1, Yah1-GST fusion protein; test: BLI; KD1 of 2:1 heterogeneous ligand fit (46%)
Yah1-GST fusion protein [3] = target: T1, Yah1-GST fusion protein; test: BLI; anaerobic, reduced Yah1 (Fig. 6C); KD2 of 2:1 fit (60%), second site
Yah1-GST fusion protein [4] = target: T1, Yah1-GST fusion protein; test: BLI; anaerobic, reduced Yah1 (Fig. 6C); KD1 of 2:1 fit (40%)
Yah1-GST fusion protein [5] = target: T1, Yah1-GST fusion protein; test: BLI; kd2 of 2:1 fit, second site
Yah1-GST fusion protein [6] = target: T1, Yah1-GST fusion protein; test: BLI; kd1 of 2:1 fit
Yah1-GST fusion protein [7] = target: T1, Yah1-GST fusion protein; test: BLI; KD2 of 2:1 heterogeneous ligand fit (54%), second site
Yah1-GST fusion protein [8] = target: T1, Yah1-GST fusion protein; test: BLI; anaerobic, reduced Yah1; KD1 of 2:1 fit (61%)
Yah1-GST fusion protein [9] = target: T1, Yah1-GST fusion protein; test: BLI; anaerobic, reduced Yah1; kd1 of 2:1 fit
Yah1-GST fusion protein [10] = target: T1, Yah1-GST fusion protein; test: BLI; anaerobic, reduced Yah1 (Fig. 6C); kd1 of 2:1 fit
Yah1-GST fusion protein [11] = target: T1, Yah1-GST fusion protein; test: BLI; anaerobic, reduced Yah1; kd2 of 2:1 fit, second site
Yah1-GST fusion protein [12] = target: T1, Yah1-GST fusion protein; test: BLI; anaerobic, reduced Yah1; KD2 of 2:1 fit (39%), second site

koff (Yah1-GST fusion protein [1]): 0.00248 s⁻¹
Kd (Yah1-GST fusion protein [2]): 0.0966 nM
Kd (Yah1-GST fusion protein [3]): 65.8 nM
Kd (Yah1-GST fusion protein [4]): 0.446 nM
koff (Yah1-GST fusion protein [5]): 0.0267 s⁻¹
koff (Yah1-GST fusion protein [6]): 3.54e-07 s⁻¹
Kd (Yah1-GST fusion protein [7]): 280 nM
Kd (Yah1-GST fusion protein [8]): 0.82 nM
koff (Yah1-GST fusion protein [9]): 3.88e-07 s⁻¹
koff (Yah1-GST fusion protein [10]): 4.91e-07 s⁻¹
koff (Yah1-GST fusion protein [11]): 0.00204 s⁻¹
Kd (Yah1-GST fusion protein [12]): 114 nM
B1: NIA complex (Nfs1–Isd11–ACPEc) (complex)
chain 1: PAAGVKLDDNFSLETHTDIQAAAKAQASARASASGTTPDAVVASGSTAMSHAYQENTGFGTRPIYLDMQATTPTDPRVLDTMLKFYTGLYGNPHSNTHSYGWETNTAVENARAHVAKMINADPKEIIFTSGATESNNMVLKGVPRFYKKTKKHIITTRTEHKCVLEAARAMMKEGFEVTFLNVDDQGLIDLKELEDAIRPDTCLVSVMAVNNEIGVIQPIKEIGAICRKNKIYFHTDAAQAYGKIHIDVNEMNIDLLSISSHKIYGPKGIGAIYVRRRPRVRLEPLLSGGGQERGLRSGTLAPPLVAGFGEAARLMKKEFDNDQAHIKRLSDKLVKGLLSAEHTTLNGSPDHRYPGCVNVSFAYVEGESLLMALRDIALSSGSACTSASLEPSYVLHALGKDDALAHSSIRFGIGRFSTEEEVDYVVKAVSDRVKFLRELSPLWEMVQEGIDLNSIKWSGH
chain 2: MPGFTAPTRRQVLSLYKEFIKNANQFNNYNFREYFLSKTRTTFRKNMNQQDPKVLMNLFKEAKNDLGVLKRQSVISQMYTFDRLVVEPLQGRKH
chain 3: MSTIEERVKKIIGEQLGVKQEEVTNNASFVEDLGADSLDTVELVMALEEEFDTEIPDEEAEKITTVQAAIDYINGHQA
